# Article PMC2141740 (The Journal of Cell Biology, 1998)
# T1: HA-tagged human TGF-β type I receptor (TβRI-HA) (human, UniProt P36897 34-503)
# T1 sequence (looked up): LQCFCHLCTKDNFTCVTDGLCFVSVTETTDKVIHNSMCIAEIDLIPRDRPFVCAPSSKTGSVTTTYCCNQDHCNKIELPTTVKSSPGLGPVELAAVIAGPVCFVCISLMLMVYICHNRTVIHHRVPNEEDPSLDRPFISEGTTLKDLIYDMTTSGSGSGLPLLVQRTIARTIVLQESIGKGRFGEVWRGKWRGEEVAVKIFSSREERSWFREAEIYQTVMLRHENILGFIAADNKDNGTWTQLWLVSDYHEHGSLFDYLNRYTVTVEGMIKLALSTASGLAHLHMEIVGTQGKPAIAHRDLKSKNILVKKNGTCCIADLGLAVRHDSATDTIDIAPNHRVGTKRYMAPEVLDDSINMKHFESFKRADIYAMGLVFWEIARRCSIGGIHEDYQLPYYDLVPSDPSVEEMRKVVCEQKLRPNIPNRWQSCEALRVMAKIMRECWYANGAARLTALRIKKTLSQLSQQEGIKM
# Target: T1, HA-tagged human TGF-β type I receptor …
# Assay: antibody-mediated immunofluorescence copatching
binder,measurement,value
"myc-tagged human TGF-β type I receptor (TβRI-myc) (receptor, UniProt P36897 34-503, looked up) LQCFCHLCTKDNFTCVTDGLCFVSVTETTDKVIHNSMCIAEIDLIPRDRPFVCAPSSKTGSVTTTYCCNQDHCNKIELPTTVKSSPGLGPVELAAVIAGPVCFVCISLMLMVYICHNRTVIHHRVPNEEDPSLDRPFISEGTTLKDLIYDMTTSGSGSGLPLLVQRTIARTIVLQESIGKGRFGEVWRGKWRGEEVAVKIFSSREERSWFREAEIYQTVMLRHENILGFIAADNKDNGTWTQLWLVSDYHEHGSLFDYLNRYTVTVEGMIKLALSTASGLAHLHMEIVGTQGKPAIAHRDLKSKNILVKKNGTCCIADLGLAVRHDSATDTIDIAPNHRVGTKRYMAPEVLDDSINMKHFESFKRADIYAMGLVFWEIARRCSIGGIHEDYQLPYYDLVPSDPSVEEMRKVVCEQKLRPNIPNRWQSCEALRVMAKIMRECWYANGAARLTALRIKKTLSQLSQQEGIKM",stoichiometry N,2
